According to article PMC7826282 (Nucleic Acids Research, 2020):

Legend:
3xFLAG-FL-NOPCHAP1 = target: T1, 3xFLAG-FL-NOPCHAP1 (human, UniProt Q8N5I9 1-185); assay: co-IP
T1 sequence (looked up): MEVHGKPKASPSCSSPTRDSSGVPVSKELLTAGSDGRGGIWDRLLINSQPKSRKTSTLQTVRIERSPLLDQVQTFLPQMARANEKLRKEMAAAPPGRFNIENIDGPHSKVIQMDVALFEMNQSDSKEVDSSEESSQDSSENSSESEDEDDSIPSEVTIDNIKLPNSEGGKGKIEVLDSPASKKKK

3xFLAG-FL-RUVBL1 (WT) = 3xFLAG-FL-RUVBL1 (WT) (mouse, UniProt P60122 1-456); assay: co-IP
3xFLAG-FL-RUVBL2 (WT) = 3xFLAG-FL-RUVBL2 (WT) (mouse, UniProt Q9WTM5 1-463); assay: co-IP
RUVBL1/2 WT complex = RUVBL1/2 WT complex ( (human or mouse cDNA cloned), UniProt Q9Y265 1-456; Q9Y230 1-463); assay: SPR
Sequence of RUVBL1/2 WT complex (Q9Y265 whole entry, one chain of several): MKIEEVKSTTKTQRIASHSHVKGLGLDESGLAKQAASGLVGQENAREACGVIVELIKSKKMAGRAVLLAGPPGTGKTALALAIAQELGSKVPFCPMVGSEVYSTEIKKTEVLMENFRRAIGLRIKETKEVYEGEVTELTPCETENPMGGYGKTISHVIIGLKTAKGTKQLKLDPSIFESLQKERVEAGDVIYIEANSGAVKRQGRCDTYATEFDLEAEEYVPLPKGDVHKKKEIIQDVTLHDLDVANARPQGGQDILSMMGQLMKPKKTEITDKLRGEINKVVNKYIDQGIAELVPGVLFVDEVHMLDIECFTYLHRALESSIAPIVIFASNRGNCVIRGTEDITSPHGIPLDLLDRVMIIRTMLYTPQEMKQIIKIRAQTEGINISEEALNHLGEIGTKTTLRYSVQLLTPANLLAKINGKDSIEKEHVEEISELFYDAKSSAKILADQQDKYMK

Sequence of 3xFLAG-FL-RUVBL1 (WT) (P60122 whole entry): as the sequence (Q9Y265 whole entry, one chain of several) above, with I291V counted along it

B1: RL-RUVBL2-E300Q (natural protein, mouse, UniProt Q9WTM5 1-463, looked up)
chain: MATVAATTKVPEIRDVTRIERIGAHSHIRGLGLDDALEPRQASQGMVGQLAARRAAGVVLEMIREGKIAGRAVLIAGQPGTGKTAIAMGMAQALGPDTPFTAIAGSEIFSLEMSKTEALTQAFRRSIGVRIKEETEIIEGEVVEIQIDRPATGTGSKVGKLTLKTTEMETIYDLGTKMIESLTKDKVQAGDVITIDKATGKISKLGRSFTRARDYDAMGSQTKFVQCPDGELQKRKEVVHTVSLHEIDVINSRTQGFLALFSGDTGEIKSEVREQINAKVAEWREEGKAEIIPGVLFIDQVHMLDIESFSFLNRALESDMAPVLIMATNRGITRIRGTSYQSPHGIPIDLLDRLLIVSTSPYSEKDTKQILRIRCEEEDVEMSEDAYTVLTRIGLETSLRYAIQLITAASLVCRKRKGTEVQVDDIKRVYSLFLDESRSTQYMKEYQDAFLFNELKGETMDTS
- co-IP efficiency (3xFLAG-FL-NOPCHAP1): 0.35%

B2: RL-RUVBL2-K83M (natural protein, mouse, UniProt Q9WTM5 1-463, looked up)
chain: MATVAATTKVPEIRDVTRIERIGAHSHIRGLGLDDALEPRQASQGMVGQLAARRAAGVVLEMIREGKIAGRAVLIAGQPGTGMTAIAMGMAQALGPDTPFTAIAGSEIFSLEMSKTEALTQAFRRSIGVRIKEETEIIEGEVVEIQIDRPATGTGSKVGKLTLKTTEMETIYDLGTKMIESLTKDKVQAGDVITIDKATGKISKLGRSFTRARDYDAMGSQTKFVQCPDGELQKRKEVVHTVSLHEIDVINSRTQGFLALFSGDTGEIKSEVREQINAKVAEWREEGKAEIIPGVLFIDEVHMLDIESFSFLNRALESDMAPVLIMATNRGITRIRGTSYQSPHGIPIDLLDRLLIVSTSPYSEKDTKQILRIRCEEEDVEMSEDAYTVLTRIGLETSLRYAIQLITAASLVCRKRKGTEVQVDDIKRVYSLFLDESRSTQYMKEYQDAFLFNELKGETMDTS
- co-IP efficiency (3xFLAG-FL-NOPCHAP1): 7.5%

B3: RL-NOP58 (natural protein, human, UniProt Q9Y2X3 1-529, looked up)
chain: MLVLFETSVGYAIFKVLNEKKLQEVDSLWKEFETPEKANKIVKLKHFEKFQDTAEALAAFTALMEGKINKQLKKVLKKIVKEAHEPLAVADAKLGGVIKEKLNLSCIHSPVVNELMRGIRSQMDGLIPGVEPREMAAMCLGLAHSLSRYRLKFSADKVDTMIVQAISLLDDLDKELNNYIMRCREWYGWHFPELGKIISDNLTYCKCLQKVGDRKNYASAKLSELLPEEVEAEVKAAAEISMGTEVSEEDICNILHLCTQVIEISEYRTQLYEYLQNRMMAIAPNVTVMVGELVGARLIAHAGSLLNLAKHAASTVQILGAEKALFRALKSRRDTPKYGLIYHASLVGQTSPKHKGKISRMLAAKTVLAIRYDAFGEDSSSAMGVENRAKLEARLRTLEDRGIRKISGTGKALAKTEKYEHKSEVKTYDPSGDSTLPTCSKKRKIEQVDKEDEITEKKAKKAKIKVKVEEEEEEKVAEEEETSVKKKKKRGKKKHIKEEPLSEEEPCTSTAIASPEKKKKKKKKRENED
- co-IP efficiency (3xFLAG-FL-NOPCHAP1): 0.18%
- fold over the control IP without antibody (3xFLAG-FL-NOPCHAP1): 64 fold
- co-IP efficiency (3xFLAG-FL-RUVBL1 (WT)): < 0.1%
- co-IP efficiency (3xFLAG-FL-RUVBL2 (WT)): < 0.1%

B4: Avi-NOPCHAP1-6xHis, biotinylated (natural protein, human, UniProt Q8N5I9 1-185, looked up)
chain: MEVHGKPKASPSCSSPTRDSSGVPVSKELLTAGSDGRGGIWDRLLINSQPKSRKTSTLQTVRIERSPLLDQVQTFLPQMARANEKLRKEMAAAPPGRFNIENIDGPHSKVIQMDVALFEMNQSDSKEVDSSEESSQDSSENSSESEDEDDSIPSEVTIDNIKLPNSEGGKGKIEVLDSPASKKKK
modifications: biotin (cellular biotinylation by BirA)
- Kd (RUVBL1/2 WT complex): 1.98 nM
